Binding Affinity to Mouse MHC Class I (% increase of D^b or K^b on RMA-S cells) and Binding Affinity to Mouse MHC Class I data for 20 molecules are collected here from US20030235557A1.

First the molecules themselves.
B1: WT1 peptide p228-236 … (peptide)
peptide: QMTSQLECM
B2: WT1 peptide p239-247 … (peptide)
peptide: NQMNLGATL
B3: WT1 peptide p225-233 … (peptide)
peptide: NLYQMTSQL
B4: WT1 peptide p235-243 … (peptide)
peptide: CMTWNQMNL
B5: WT1 peptide p329-337 … (peptide)
peptide: GCNKRYFKL
B6: WT1 peptide human p10-18 … (peptide)
peptide: ALLPAVPSL
B7: WT1 peptide p221-229 … (peptide)
peptide: YSSDNLYQM
B8: WT1 peptide human p136-144 … (peptide)
peptide: SCLESQPAI
B9: WT1 peptide P127-135 … (peptide)
peptide: MFPNAPYLP
B10: WT1 peptide P119-127 … (peptide)
peptide: QASSGQARM
B11: WT1 peptide P128-136 … (peptide)
peptide: FPNAPYLPS
B12: WT1 peptide P131-139 … (peptide)
peptide: APYLPSCLE
B13: WT1 peptide P130-138 … (peptide)
peptide: NAPYLPSCL
B14: WT1 peptide P125-133 … (peptide)
peptide: ARMFPNAPY
B15: WT1 peptide P117-125 … (peptide)
peptide: PSQASSGQA
B16: WT1 peptide P121-129 … (peptide)
peptide: SSGQARMFP
B17: WT1 peptide P118-126 … (peptide)
peptide: SQASSGQAR
B18: WT1 peptide P124-132 … (peptide)
peptide: QARMFPNAP
B19: WT1 peptide P129-137 … (peptide)
peptide: PNAPYLPSC
B20: WT1 peptide P120-128 … (peptide)
peptide: ASSGQARMF

The target in one assay is mouse B6 class I antigens (D^b or K^b molecules on the surface of RMA-S cells) (mouse (C57Bl/6)). Briefly: RMA-S class I stabilisation, peptide 25 ug/ml, flow cytometry with FITC anti-D^b or anti-K^b.
Chain of mouse B6 class I antigens (D^b or K^b molecules on the surface of RMA-S cells) (mouse (C57Bl/6)) (P01899 25-362, chain 1 of 2): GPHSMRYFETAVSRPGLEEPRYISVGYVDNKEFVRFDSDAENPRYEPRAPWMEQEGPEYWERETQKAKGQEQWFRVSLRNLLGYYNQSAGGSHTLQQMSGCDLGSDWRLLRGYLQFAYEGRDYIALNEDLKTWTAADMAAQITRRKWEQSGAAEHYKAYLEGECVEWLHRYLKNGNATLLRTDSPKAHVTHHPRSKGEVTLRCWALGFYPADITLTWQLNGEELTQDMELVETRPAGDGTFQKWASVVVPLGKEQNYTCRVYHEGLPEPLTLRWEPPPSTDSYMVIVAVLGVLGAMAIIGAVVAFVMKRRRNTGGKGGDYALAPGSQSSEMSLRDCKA
Chain of mouse B6 class I antigens (D^b or K^b molecules on the surface of RMA-S cells) (mouse (C57Bl/6)) (P01887 21-119, chain 2 of 2, further chain): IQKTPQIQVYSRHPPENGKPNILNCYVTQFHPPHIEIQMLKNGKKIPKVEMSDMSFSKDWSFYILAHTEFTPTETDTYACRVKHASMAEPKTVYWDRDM
B1 registered a Binding Affinity to Mouse MHC Class I (% increase of D^b or K^b on RMA-S cells) of 1.2%. In the case of B2, the Binding Affinity to Mouse MHC Class I (% increase of D^b or K^b on RMA-S cells) came to 1%. Same read-out and setting: in the case of B3 it was 5.8%; in that of B4, 33.6%. Take B5: the Binding Affinity to Mouse MHC Class I (% increase of D^b or K^b on RMA-S cells) is 1.2%.

With B6, the Binding Affinity to Mouse MHC Class I (% increase of D^b or K^b on RMA-S cells) came to 2.2%. With B7, the Binding Affinity to Mouse MHC Class I (% increase of D^b or K^b on RMA-S cells) came to 0.8%. Same read-out and setting: under B8 stands 52%.

The next assay shares this target. As to the kind of experiment: binding of 9mer peptides within p117-139 to mouse B6 (H-2^b) class I, RMA-S assay as in Example 4.
Regarding B9, the Binding Affinity to Mouse MHC Class I amounted to 2%. Same read-out and setting: in the case of B10 it was 2%; in that of B11, 1%.

As to B12, the Binding Affinity to Mouse MHC Class I was found to be 1%.

Regarding B13, the Binding Affinity to Mouse MHC Class I is 79%. On the same count and under the same terms, in the case of B14 it was 1%; in that of B15, 2%; in that of B16, 1%. The same measure, in the same setting: in the case of B17 it was 2%; in that of B18, 1%. In turn, B19 returned a Binding Affinity to Mouse MHC Class I of 1%. Still for that read-out and setting: in the case of B20 it was 1%.
